# According to the nanobody polyreactivity screen of Harvey et al. (2022):
# Test: yeast display, Sf9 membrane polyspecificity reagent, FACS + sequencing; frameworks hold sequencing errors
# Procedure, shortened: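 After 36–48 hours of galactose induction, yeast (Saccharomyces cerevisiae BJ5465) displaying a synthetic nanobody library were stained at 4 °C for 1 hour with 10% biotinylated, detergent-solubilized Sf9 membrane reagent. Streptavidin microbeads enriched the stained cells before FACS sorting into low and high (top ~1%) gates on anti-HA and streptavidin fluorescence. Each clone's polyreactivity label reflects its gate of origin.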
row,Sequence,polyreactivity (PSR sort gate)
1,QVQLVESGGGLVQAGGSLRLSCAPSGRIFTGYAMGWYRPEPGQEWELVAASTSSGGSTYYADSVKGRVTISRDYAKNTVYLQMNSLKPEDTAVYYCNKVGRPRYNYWGQGTEVTVSS,high polyreactivity
2,QVQRVESGGGLVQAGGSLRLSCAASGFTFVPYALGWYRPAPGQERELVAAISGSGGSTYYADSVKGRFTISRDNEKNTVYLQMNSLKPEDTAVYYCNADRRWAYYWGQGTQVTVSS,high polyreactivity
3,QDQLVESGGGLVQAGGSLRLSCAASGRIFKYKAMGRYRQAPGKERELVAAIRRSGGSTYYADSVKGRFTISRDYAKNTVYLQMNSLKPEDTAVYFCNRLYGPGFKSVYGYDYWGQGTQVTVSS,high polyreactivity
4,QVQLVESGGGLVQAGGSLRLSCAASGRTFRRYVMGRYRQAPGKEMEMVARITTSGGNTYYADSVKGRFTISRDNAKITVYLQMNSMKPEVTAVYYCAADFLRTYKEYNLGYWGQGTQVTVSS,low polyreactivity
5,QVQLVESWGGLVQAGGSLRLSCAASGFTFVSYAMGWYRQAPGKERELVAAISKRGGSTSYADSVKGRFTISRDNAKNTVYLQMNSLKPEDTAVYYCYNRSYAWSPHVDYWGQGTQVTVSS,high polyreactivity
6,QVQHVDSGGGLVQAGGSLRLSCSASGINFPWYAMGWYRQAPGKERELVAAITSGGSTYYADSVKGRFTISRDNAKNTVYLEMYSLKPEDTAVYYCNADYYSWYLGAYLYDYWGQGTQVTVSS,high polyreactivity
7,QVQLVESGAGLVQAGGSLRLSCAASGSIFWAYAMGWYRQAPGKERELVAAISRGGTTTYADSVKGRFTISRDNAKYTVYLQMNSLKPEDTAVYYCARQGTIYSYDIVYPRLDYWGQGTQVTVSS,low polyreactivity
8,QVQLVESGGGLVHAGGSLRLSCAASGFTLRKYVMGWYRQAPGKERELVAAITSYASSTYFADSVKGRFTISRDNSKNTVYLQMNSLKPEDSAVYYCAARRYGEPYGYWGQGTQVTVSS,high polyreactivity
9,QVQLVESGGGLVQAGGSLRFSCAASGSTFVYYGMGWDRQAPGKERELVAAITDIGDSTNYADSVKGRFTISRDNAKNTVYLQMNSLKPEDTAVYYCAASGRSVPYYGSPRNDYWGQGTQVTVSS,low polyreactivity
10,QVQLVESGGGLVQAGGSLRLSCASSGRTFGTNTMGWYRQAPGKERELVAAISRSGVRTYYADSVKGRFTISRDNAKNTVYLQMKSLKAEDTAVYYCATDYKVHGFDYWGQGTQVSVSS,high polyreactivity
11,QVQLVESGGGLVQAGGSLRLSCAASGRISTYTMGWYRQAPGKERELVATISTHASTNYSDSVKGRFTISRDNAKYTVYLQKYSMKPEDNAVFYCATTVPVILYVTPSTYAVVGYEYWGQGTQVTVSS,low polyreactivity
12,QVQLVESGGGLVQAGGSLRLSCAASGSIFWSYGMGWYIQAPGKERELVASTRYADSVKERFTISRDNAKNTVYLLMNSLKPEDTAVYYCAADVWTLDPDEYDYWGQGTQVTVSS,low polyreactivity
13,QVQLVESGGGLVQAGGSLRLSCAASGFIFIYDMGWYRQAPGKERELVAAITSSDGSTYYADSVKGRFTISRDNAKNTVYLQMNSLKPEDTAVYYCNAKYPWGNYNSVSYDYWGQGTQVTVSS,high polyreactivity
14,QVQLVESGGGLVQAGGSLRLSCAASGHTFSSYAMGWYRQAPGKERELVAAISVSATRTYYADSVKGRFTISRDNAKNTVYLQMNSLKPEDTAVYYCAARPVQFTYGYWGQGTQVTVSS,high polyreactivity
15,QVQLVESRGGLVQAGGSLSLSCAASGSTYNASAMGWYRQATGKERELVAAISSGGSTYYADSVKGRFTISRDNANNTVYLQMNSLKPEDTAVLYCAAVLTGHYYRFDYWGQGTQVNVSS,low polyreactivity
16,QVQLVESGGGLVQAGGSLRLSCAASGSTFRFYAMGWYRQAPGKERELVAAITWRSGRTSYADSVKGRFTISRDNAKNTVYLQMNSLKPDDTAVYYCAATSVYRYDYWGQGTLVTVSS,high polyreactivity

row,Sequence,polyreactivity (PSR sort gate)
1,QVQLVESGGGLVQAGGSLRLSCPASASNYAAYTMAWYRQAPGKERECVAAITSGGSTNYADSVKGRFTISRDNAKNTVYLQMNSLKPEDTAVYYCAAEDLNYYFWRSLWFGIYDDWGQGTQVTVSS,low polyreactivity
2,QVQLVESGGGLVQAGGSLRLSCAASGLTFDVYTMGWYRQAPGKERELVAGITSGGSTDYADSVKGRFTISRDNAKNTVYLQMNSLKPEDTAVYYCNKPFPYYPDGPNGYDYWGQGTQVTVSS,low polyreactivity
3,QVQLVESGGGLVQAGGSLRLSCAASGSTFDYYDMGWYRQAPGKERELVATVTSGGSTNYADSVKGRFTISRDNAKNTVYLQMNSLKPEDTAVYYCAADIGGDGEGYDYWGQGTQVTLSS,low polyreactivity
4,QVQLVESGGGLVQAGGSLRLSCAASGFTFAYYAMGSYRQAPGKERELVAAIRKSGATTYYADSVKGRFTISRDNSKNTVYLQMISLKPEDTAVYYCNAVVKSSSRGSIAHPGYDYWGQGTQVTVSS,high polyreactivity
5,QVPLVESGGGLVQAGGSLRLSCAASGGIFGRYAMGWYRQAPGKERELVAALSARGGSSYYADSVKGRFTISRDNAKNTVYFQMNSLKPEDTAVYYCNALWVSYYTFRMDYWGQGTQVTVSS,high polyreactivity
6,QVQLVESGGGLVQAGGSLRLSCAASGRTFGRYAMGWYRQAPGKERELVATISSRGGNTYYADSVKGRFTISRDNAKNTVYLQMNSLKPEDTAVYYCAAQTYKWYDWGQGTQVTVSS,high polyreactivity
7,QVQLVESGGGLVQAGGSLRLSCAASGSIFSLNAMGWYRQAPGKERELVAVINRSGTRTYYADSVKGRFTISRDNAKNTVYLQINSLKPEVTAVYYCNAEPSSGSDAQNEYWGQGTQVTVSS,high polyreactivity
8,QVQLVESGGGLVQAGGSLRLSCAASGRTFYYYAMGWYRQAPGKERELVAVIRSSGDSTYYADSVKGRFTISRDNAKNTVYLQMNSLKPEDTAVYYCNADDWAYGMDYWGQGTQVTVSS,low polyreactivity
9,QVQLVESGGGLVQAGGSLRLSCAASGSTFRGYVMGWYRQAPGKERELVAAISSGGRTYYADSVKGRFTISRDNAKNTVYLQMNSLKPEDTAVYYCNSNGRDVYYNWAYDYWGQGTQVTVSS,high polyreactivity
10,QLQLVESGGGLVQAGGSLSLTFAASGIISNYNAMGWYIQAPGKERELVSAISRSGTRKYYADSVKGRYTISRDNAKNTVYLQMNSLKPEDTAVYDCAAPSWSSKGYCKGYYWGQGTQVTVSS,high polyreactivity
11,QVQLVESGAGLVHAGGSLRLSCAASGRTFSSNAMGGYRQAPGKERELVAGITWGGGSTYYADSVKGRFTISRDNAKNTVYLQMYSLKPEDTAVYYCAKSAGKRGYQVDYWVQGTQVTVSS,high polyreactivity
12,QVQLVESGGGLVQAGGSLRLSCAASGITFFTNVMGWYRPAPGKERELVAAISRSGTSTYYADSVKGRFTISRDNAKNTVYLQMNSLKPEDTAVYYCNADQIRGDGDYWGQGTQVTVSS,high polyreactivity
13,QVQLVESGGGLVQAGGSLRLSCAASGSIFGVYDMGWYRQAPGKERELVAVINSNGGSTYYADSVKGRFTISRDNAKNTVYLQMNSLKPEDTAVYYCAAERATVKFGYWGQGTQVTVSS,low polyreactivity
14,QVQLVESGGGLVQAGGSLRLSCAASGSTFPGYAMGWYRQAPGKERELVAAISKRGGSTYYADSVKGRFTISRDNAKNTVYLQMNSLKPEDTAVYYCATVSRKYSLDYWGQGTQVTVSS,high polyreactivity
15,QVQLVESGGGLVQAGGSLRLSCAASGSIFYRNAMGWYRQAPGKERELVASISASGGRTYYADSVKGRLTISRDNAKNTVYFQMYSLNREETAFYYCNKVSPVAYWYSWGINFDFWGQGTQVTVSS,high polyreactivity
16,QVQLVESGGGLVQAGGSLRLSCAASGRIFGYYGRGWYRQAPGKERELVARISGRGGSTYYADSVKGRFTLSRDNAKNTVYLQINSLKPEDTAVYYCNVVFSFWQYYAYDQGDYWGQGTQVTVSS,low polyreactivity
